In patent US11702666B2, “Cell-based assay for determining activity in the retinoblastoma pathway” (Medical Diagnostic Laboratories, LLC, priority 2017, dated 2023):
Numbering of substitutions follows the chain as printed. In names and notes the source's numbering stands. Entries after “also recorded” stand apart in the source; their conditions may differ.

B1: CDK4 K22M: CDK4 mutant from COSMIC database (protein, UniProt P11802 2-303, looked up, variant K22M)
Cyclin-dependent kinase 4: ATSRYEPVAEIGVGAYGTVYMARDPHSGHFVALKSVRVPNGGGGGGGLPISTVREVALLRRLEAFEHPNVVRLMDVCATSRTDREIKVTLVFEHVDQDLRTYLDKAPPPGLPAETIKDLMRQFLRGLDFLHANCIVHRDLKPENILVTSGGTVKLADFGLARIYSYQMALTPVVVTLWYRAPEVLLQSTYATPVDMWSVGCIFAEMFRRKPLFCGNSEADQLGKIFDLIGLPPEDDWPRDVSLPRGAFPPRGPRPVQSVVPEMEESGAQLLLEMLTFNPHKRISAFRALQHSYLHKDEGNPE
B2: CDK4 D158N: CDK4 mutant, literature kinase dead (protein, UniProt P11802 2-303, looked up, variant D158N)
Cyclin-dependent kinase 4: B1 Cyclin-dependent kinase 4 with M21K, D157N
B3: CDK4 L161L: CDK4 silent variant (C-T) from COSMIC database (protein, UniProt P11802 2-303, looked up)
Cyclin-dependent kinase 4: B1 Cyclin-dependent kinase 4 with M21K
modifications: silent L161L nucleotide variant
notes: CDK4 silent variant (C-T) from COSMIC database
B4: CDK4 K35R: CDK4 mutant from COSMIC database (protein, UniProt P11802 2-303, looked up, variant K35R)
Cyclin-dependent kinase 4: B1 Cyclin-dependent kinase 4 with M21K, K34R
B5: CDK4 R24S: CDK4 mutant from COSMIC database (protein, UniProt P11802 2-303, looked up, variant R24S)
Cyclin-dependent kinase 4: B1 Cyclin-dependent kinase 4 with M21K, R23S
B6: CDK4 R210Q: CDK4 mutant from COSMIC database (protein, UniProt P11802 2-303, looked up, variant R210Q)
Cyclin-dependent kinase 4: B1 Cyclin-dependent kinase 4 with M21K, R209Q
B7: CDK4 V137I: CDK4 mutant from COSMIC database (protein, UniProt P11802 2-303, looked up, variant V137I)
Cyclin-dependent kinase 4: B1 Cyclin-dependent kinase 4 with M21K, V136I
B8: CDK4 K35M: CDK4 mutant, literature kinase dead (protein, UniProt P11802 2-303, looked up, variant K35M)
Cyclin-dependent kinase 4: B1 Cyclin-dependent kinase 4 with M21K, K34M
B9: CDK4 D158Y: CDK4 mutant from COSMIC database (protein, UniProt P11802 2-303, looked up, variant D158Y)
Cyclin-dependent kinase 4: B1 Cyclin-dependent kinase 4 with M21K, D157Y
B10: CDK4 S285C: CDK4 mutant from COSMIC database (protein, UniProt P11802 2-303, looked up, variant S285C)
Cyclin-dependent kinase 4: B1 Cyclin-dependent kinase 4 with M21K, S284C
B11: CDK4 K155Q: CDK4 mutant from COSMIC database (protein, UniProt P11802 2-303, looked up, variant K155Q)
Cyclin-dependent kinase 4: B1 Cyclin-dependent kinase 4 with M21K, K154Q
B12: CDK4 I51F: predicted drug resistant CDK4 mutant (protein, UniProt P11802 2-303, looked up, variant I51F)
Cyclin-dependent kinase 4: B1 Cyclin-dependent kinase 4 with M21K, I50F
B13: Rb R661W: known Rb null mutant (protein, UniProt P06400 2-928, looked up, variant R661W)
Retinoblastoma-associated …: PPKTPRKTAATAAAAAAEPPAPPPPPPPEEDPEQDSGPEDLPLVRLEFEETEEPDFTALCQKLKIPDHVRERAWLTWEKVSSVDGVLGGYIQKKKELWGICIFIAAVDLDEMSFTFTELQKNIEISVHKFFNLLKEIDTSTKVDNAMSRLLKKYDVLFALFSKLERTCELIYLTQPSSSISTEINSALVLKVSWITFLLAKGEVLQMEDDLVISFQLMLCVLDYFIKLSPPMLLKEPYKTAVIPINGSPRTPRRGQNRSARIAKQLENDTRIIEVLCKEHECNIDEVKNVYFKNFIPFMNSLGLVTSNGLPEVENLSKRYEEIYLKNKDLDARLFLDHDKTLQTDSIDSFETQRTPRKSNLDEEVNVIPPHTPVRTVMNTIQQLMMILNSASDQPSENLISYFNNCTVNPKESILKRVKDIGYIFKEKFAKAVGQGCVEIGSQRYKLGVRLYYRVMESMLKSEEERLSIQNFSKLLNDNIFHMSLLACALEVVMATYSRSTSQNLDSGTDLSFPWILNVLNLKAFDFYKVIESFIKAEGNLTREMIKHLERCEHRIMESLAWLSDSPLFDLIKQSKDREGPTDHLESACPLNLPLQNNHTAADMYLSPVRSPKKKGSTTRVNSTANAETQATSAFQTQKPLKSTSLSLFYKKVYRLAYLWLNTLCERLLSEHPELEHIIWTLFQHTLQNEYELMRDRHLDQIMMCSMYGICKVKNIDLKFKIIVTAYKDLPHAVQETFKRVLIKEEEYDSIIVFYNSVFMQRLKTNILQYASTRPPTLSPIPHIPRSPYKFPSSPLRIPGGNIYISPLKSPYKISEGLPTPTKMTPRSRILVSIGESFGTSEKFQKINQMVCNSDRVLKRSAEGSNPPKPLKKLRFDIEGSDEADGSKHLPGESKFQQKLAEMTSTRTRMQKQKMNDSMDTSNKEEK
B14: Rb C706F: known Rb null mutant (protein, UniProt P06400 2-928, looked up, variant C706F)
Retinoblastoma-associated …: B13 Retinoblastoma-associated … with W660R, C705F

What follows are molecules tested on Rb/E2F1-Dp-1 complex (assay: CDK4 mutant activity / drug resistance in NanoBiT assay, stable cell line #11). Conditions: CDK4 mutants, compared to the WT (being 100%).
Assay type: cell-based, human
Protocol: A linear expression cassette of mutated CDK4 or CDK6 was generated by PCR mediated overlapping extension method. A pair of forward and reverse primers containing the targeted mutations was designed. The mutated codon was located in the middle of a primer flanked by 18-21 nucleotides on each side. Two PCRs (named as PCR #1 and PCR #2 in FIG. 1) were performed using UF-CMV forward and mutated reverse primers, or mutated forward and BGH-UR primers. The PCR products were cleaned up by ExoSAP-IT® (Affymetrix) to remove unconsumed dNTPs and primers. The treated PCR products were mixed together followed by dilution with water. A second round of PCR was performed using the diluted PCR mixture, and the UF and UR primers (FIG. 1). The amplified products were gel-purified. The DNA concentration was quantitated by the optical density at 260 nm using Nanodrop. The targeted mutations were incorporated in the CDK4 or CDK6 genes during the PCR mediated overlapping extension method. The introduced mutations were confirmed by the DNA sequencing.
To examine the ability of the assay to detect variants in CDK4 or CDK6 that affect function, kinase dead mutants and COSMIC (Catalogue Of Somatic Mutations in cancer) unknown mutants were created. For comparison, hyperactive CDK4 or CDK6 mutants known to be hyperactive due to less binding to natural inhibitor p16 were also created. The mutations in CDK4 or CDK6 were created by site-directed mutagenesis. WT or mutated CDK4 or CDK6 along with the CyclinD1 and SB-Rb were co-transfected, under similar conditions as previously indicated (see FIG. 9).
To examine the specificity of the assay, particular CDK4 kinase dead mutants were created. Modifications to D158 were made by changing aspartate to nonpolar alanine (D158A) or positively charged arginine (D158R). […] The mutations in CDK4 were created by site-directed mutagenesis. WT or mutated CDK4 along with the CyclinD1 and SB-Rb was co-transfected into the #11 cell line, under the same conditions as previously indicated. […] Kinase dead mutants have the high signal due to inability to phosphorylate Rb.
Computer modeling was used to reveal the drug-binding pocket and predict drug-resistant mutants. The mutations in CDK4 and CDK6 were created by site-directed mutagenesis. WT or mutated CDK4 or CDK6 along with the CyclinD1 and SB-Rb was co-transfected into #11 cell line, under the same conditions as previously indicated. […] Dose response curves are presented on FIG. 13A and FIG. 13B. Activity of other mutants was very similar to the WT or KD.
CDK4 and CDK6 mutants with known function and unknown function taken from the COSMIC database were analyzed in the present assay and are summarized in Table 7A and Table 7B. The mutants were classified according to their activity. Table 7A and Table 7B also show the number of counts per mutant in the COSMIC database, type of cancer, and luciferase activity compared to the WT (being 100%).

| Molecule | Luc. activity (/wt) [%] |
| --- | --- |
| B1 | 141 |
| B2 | 300 |
| B3 | 59 |
| B4 | 310 |
| B5 | 117 |
| B6 | 74.5 |
| B7 | 120 |
| B8 | 350 |
| B9 | 230 |
| B10 | 125 |
| B11 | 130 |

Same assay, conditions: predicted drug resistant CDK4 mutants, relative to WT

| Molecule | Luc. activity (/wt) [%] |
| --- | --- |
| B12 | 160 |

These molecules were tested on E2F1/Dp-1 heterodimer (assay: Rb activity assay (LB-Rb with E2F1-SB, DP1 split luciferase)). Conditions: LB-Rb and E2F1-SB with Dp-1.
Chain of E2F1/Dp-1 heterodimer (Q01094 58-437 limits assumed): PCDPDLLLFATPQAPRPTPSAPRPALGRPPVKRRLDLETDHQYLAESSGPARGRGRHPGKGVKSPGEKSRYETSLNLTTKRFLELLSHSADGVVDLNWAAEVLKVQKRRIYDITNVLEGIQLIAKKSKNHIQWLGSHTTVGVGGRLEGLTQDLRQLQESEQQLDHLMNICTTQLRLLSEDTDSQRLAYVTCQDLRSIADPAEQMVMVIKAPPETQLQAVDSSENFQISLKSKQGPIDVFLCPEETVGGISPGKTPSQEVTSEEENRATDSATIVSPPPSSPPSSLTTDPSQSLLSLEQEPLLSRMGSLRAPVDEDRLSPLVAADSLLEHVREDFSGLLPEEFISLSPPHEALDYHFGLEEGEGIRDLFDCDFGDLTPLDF
Chain of E2F1/Dp-1 heterodimer (Q14186 whole entry, further chain): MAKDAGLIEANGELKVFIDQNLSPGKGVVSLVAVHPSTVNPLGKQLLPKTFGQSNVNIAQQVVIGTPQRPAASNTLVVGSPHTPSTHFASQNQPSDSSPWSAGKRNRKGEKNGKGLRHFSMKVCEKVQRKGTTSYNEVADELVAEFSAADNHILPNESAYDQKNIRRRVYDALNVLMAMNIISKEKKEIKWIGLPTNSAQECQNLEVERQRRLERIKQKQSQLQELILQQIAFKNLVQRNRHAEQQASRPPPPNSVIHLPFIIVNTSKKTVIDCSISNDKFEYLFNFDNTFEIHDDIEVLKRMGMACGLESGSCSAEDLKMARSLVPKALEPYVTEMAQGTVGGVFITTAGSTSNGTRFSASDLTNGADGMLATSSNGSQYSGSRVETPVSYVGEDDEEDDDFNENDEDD
Assay type: cell-based, human
Design: key to Observed activity: N—no activity; A—active as WT; R—reduced activity compared to the WT
Text: An assay that could measure the interaction between Rb, E2F1, and Dp-1 was developed. Since Dp-1 forms a heterodimer with E2F1 and that interaction is crucial for Rb/E2F1 binding, the assay was comprised of three components. When two proteins (Rb and E2F1) are in close proximity or in complex, a light signal was observed. For the purposes of the current assay, split-luciferase complementation was used to measure the interaction between Rb and E2F1. The NanoBiT assay system by Promega (Madison, Wis.; Dixon et al., 2015, ACS ChemBiol) was used in our split luciferase complementation design.
FIG. 16 depicts the design of a signal system to measure Rb activity. Under basal conditions inside the cell, Rb was active and interacted with the E2F1/Dp-1 heterodimer. For this assay design, cDNAs of Rb linked to different parts of the luciferase protein, either termed as the “Small BiT” (SB), or “Large BiT” (LB) and E2F1 linked to the opposite portion of the luciferase protein were created. When Rb and E2F1/Dp-1 bind, the NanoBiT parts of the luciferase form a complex and emitted a light signal when the luciferase (NanoGlo) substrate was added.
Using the described assay design, HEK293 CDK DKO cells were transiently transfected with different combinations of SB-Rb or LB-Rb and E2F1-LB or E2F1-SB components containing C-terminal and N-terminal constructs (FIG. 17). Relative intensities generated are presented in FIG. 17 as relative luminescence units (RLU). The data represents a sample experiment where each condition was performed in triplicate and represent mean+SD.
The LB-Rb and E2F1-SB with Dp-1 were tested for Rb activity using known Rb null mutants: R661W and C706F (FIG. 18A). […] Rb in-frame (del35) and out-of frame (del1) deletion mutants (FIG. 18B) were constructed and the observed luciferase activity was close to 0, in particular for del1 mutant, because Rb-E2F1 binding was destroyed.
Within the provided assay design, stable cell lines using the HEK293 CDK DKO cell parent line expressing E2F1-SB and Dp-1 were produced. After selection and screening for positive clones using an LB-Rb-mediated increase in signal, four stable single cell clones were selected and evaluated using different Rb mutants (FIGS. 19A and 19B). The response to E2F1 interaction was also checked by using the plasmid and linear form of DNA. Cell line #37 was selected for all our experiments in assay development due to its favorable response.
The conditions of the assay were further optimized by analyzing different cell numbers and Rb concentrations (FIG. 20). Based on the data, it was decided to use 0.2×10^6 cells/ml and 70 ng of DNA in the assay.
Known null and out/in-frame deletion mutants disrupting E2F1 binding and unknown COSMIC mutants were created to examine the ability of the assay to detect variants in Rb that affect function. We transfected WT or mutated Rb using similar conditions as previously indicated (FIG. 20). […] In addition, the null C706F and deletion (del1) mutants presented a signal close to zero as expected for loss of function mutants that disrupt E2F1 interaction. […] This confirmed that the assay was capable of determining the relative activity level of Rb mutants. The data is provided in Luminescence (RLU) of a single experiment with each condition performed in triplicate and represent average+SD.

| Molecule | luciferase activity / E2F1 interaction of Rb mutant |
| --- | --- |
| B13 | completely disrupted the E2F1 interaction |
| B14 | completely disrupted the E2F1 interaction; also recorded: close to zero |

Same assay, conditions: Rb mutants

| Molecule | Observed activity |
| --- | --- |
| B13 | N |
| B14 | N |

Same assay, conditions: Rb mutants, activity relative to WT

| Molecule | % (/wt) [%] |
| --- | --- |
| B13 | 5.2 |
| B14 | 5.5 |
